Positions count from the first letter of the chain named.
B1: PRT-694 (protein)
chain: MTITSVWTKGVTPPTPEDFRYNNEDVLHAPYVANQGWYDITKTFDGKDNLLCGAATAGNMLHWWFDQNKEEIERYLKKYPEKQKIIFNNQELFDVRAAINTKDSQTNSKLFNYFRDKAFPNLSARQLGVMPDLVLDMFINGYYLNLGKTQSTDVNRPYQDKDKRGGIFDAVFNRGDQTTLLTARHDLKNKGLNEISDLIKQELSSGKALALSHTYANVRINHVINLWGADFDAEGNLIAIYVTDSDANSNIGMKKYKVGVNANGKVAISAKKIEGDNIGAQVLGLFTLSTGQDIWQKLSLEHHHHHH
B2: PRT-603 (protein)
chain: MQITTVWTKGVTPLTPEQFRYNNEDVIHAPYLAHQGWYDITKAFDGKDNLLCGAATAGNMLHWWFDQNKTEIEAYLSKHPEKQKIIFNNQELFDLKAAIDTKDSQTNSQLFNYFRDKAFPNLSARQLGVMPDLVLDMFINGYYLNVFKTQSTDVNRPYQDKDKRGGIFDAVFTRGDQTTLLTARHDLKNGGLNDISTIIKQELQSGRALALSHTYANVSISHVINLWGADFNAEGNLEAIYVTDSDANASIGMKKYFVGINAHGHVAISAKKIEGENIGAQVLGLFTLSSGKDIWQKLSLEHHHHHH
B3: PRT-377 (protein)
chain: MVTSVWTKGVTPPTNFTYGEDVLHAPYVANQGWYDITKTFNGKDDLLCGAATAGNMLHWWFDQNKEQIENYLKKHPEKQKINFNGEQMFDVKEAIDTKDSQLDSKLFEYFLEKAFPYLSTKHLGVFPDHVIDMFINGYRLSLTNHGPTPVKRGSKDPRGGIFDAVFTRGDQSKLLTNRHDFKEKTLKEISDLIKQELTEGKALGISHTYANVRINHVINLWGADFDAEGNLEAIYVTDSDSNASIGMKKYFVGVNSNGKVAISAKEIEEDNIGAQVLGLFTLSTGQDIWNQTN
B4: PRT-577 (protein)
chain: MANQEIRYSKATPSTITSVWTKGVTPPENFIYNEDVLHAPYLANQGWYDITKTFNGKDDLLCGAATAGNMLHWWFDQNKEQIERYLKEHPEKQKINFNGEQMFDVKEAIDTKDSQTNSKLFEYFKDKAFPYLSTKHLGVFPDHVIDMFINGYRLSLTNHGPTPVKEQTKDPRGGIFDAVFTRGDQSKLLTSRHDFKEKTLNEISQLIKQELTEGKALGLSHTYANVRINHVINLWGADFNAEGNLEAIYVTDSDSNASIGMKKYYVGVNSAGKVAISAKEIEGDNIGAQVLGLFTLSTGQDIWQQTNLEHHHHHH
B5: PRT-585 (protein)
chain: B4 chain with N29Q, L42I, E88K, Q205D, Q304E
B6: PRT-690 (protein)
chain: MQITSVWTKGVTPPTPEQFRYNNEDVIHAPYLANQGWYDITKTFNGKDNLLCGAATAGNMLHWWFDQNKTEIEAYLSKYPEKQKIIFNNQELFDLRAAINTKDSQTNSQLFNYFRDKAFPNLSARQLGVMPDLVLDMFINGYYLNVFKTQSTDVNRPYQDKDKRGGIFDAVFNRGDQTTLLTARHDLKNKTLNDISTLIKQELSSGKALALSHTYANVSISHVINLWGADFNAEGNLEAIYVTDSDANSNIGMKKYKVGVNAHGKVAISAKKIEGENIGAQVLGLFTLSSGKDIWQKLSLEHHHHHH
B7: PRT-564 (protein)
chain: MANQEIRYSEATPSHITSVWTKGVTPPTQFIQNEDVLHAPYIANQGWYDITKTFNGKDDLLCGAATAGNMLHWWFDQNKTQIENYLKKHPEKQKINFNGEQMFDVKEAIDTKDSQTDSALFSYFKDKAFPYLSTKHLGVFPDHVIDMFINGYRLSLTNHGPTPVKRQTKDPRGGIFDAVFTRGDQSKLLTSRHDFKEKTLNEISQLIKQELTEGKALGLSHTYANVRINHVINLWGADFNAEGNLEAIYVTDSDSNASIGMKKYYVGVNAAGKVAISAKEIEGDNIGAQVLGLFTLSTGQDIWQQTNLEHHHHHH
B8: PRT-594 (protein)
chain: B7 chain with A11E, H15T, Q29D, T80E, T116L, S122E, Q167G, Q205D, A270S, Q304N
B9: PRT-435 (protein)
chain: MSQTEDSESLQRLRDIEDFQAEKEKQNVVYTKWLDGVDVKDHDFRKIVDGNIAYYATPLLNGRGFYDINKDFNRDSDKCAAAVAANMFHYWLDRNRDNVDRFLRQNPEKHGIIELPDGQLKLSDFLNTYESDDGYRDKSKLFDFISNNFNGPVWTDKLLDNYINGYAYNYKYGRTIEDPTKNTSKINFFKEVFNEKILTNNHSIRNQNEFSVLLSEALYTGKAIGLSYGPAGLRHSLGHIISVWGADLDADGNVVAIYVTDSDDKKLTIGDERVGLKRYKISTDDEGRLRLTAYEETHNTGGQIRGLWTLDTGKQAWADYFDKTEQTGTDQAEQ
B10: PRT-373 (protein)
chain: B9 chain with I52S, F65W, S76N, N147E, Y170S, P179S, S215I, S236G, I304V
B11: PRT-441 (protein)
chain: B9 chain with E24K, L233T
B12: PRT-432 (protein)
chain: B9 chain with E24K, Y170S
B13: PRT-431 (protein)
chain: B9 chain with E24K, N147E
B14: PRT-430 (protein)
chain: B9 chain with E24K, I52S
B15: PRT-438 (protein)
chain: B9 chain with E24K, F65L
B16: PRT-440 (protein)
chain: B9 chain with E24K, F210L
B17: PRT-436 (protein)
chain: B9 chain with E24K, K25D
B18: PRT-445 (protein)
chain: B9 chain with E24K, P179S

How the values were obtained:
[1] = biological target: pooled human IgG (human IgG1, 2, 3 and 4)
[2] = biological target: pooled human IgG (human IgG1,2,3 and 4)

Protein	Enzyme Activity Endpoint Assay (purified): Fab′2 [1] [ng/µL]	Enzyme Activity Endpoint Assay (purified): Fc [1] [ng/µL]	Enzyme Activity Endpoint Assay (purified): IgG [1] [ng/µL]	Enzyme Activity Endpoint Assay (purified): scIgG [1] [ng/µL]	Enzyme Activity Endpoint Assay (purified): Fab'2 [1] [ng/µL]	Enzyme Activity Endpoint Assay: Fab′2 [2] [ng/µL]	Enzyme Activity Endpoint Assay: Fc [2] [ng/µL]	Enzyme Activity Endpoint Assay: IgG [2] [ng/µL]	Enzyme Activity Endpoint Assay: scIgG [2] [ng/µL]
B1	541	0	1030	15	–	–	–	–	–
B2	965	486	0	0	–	–	–	–	–
B3	572	348	0	242	–	–	–	–	–
B4	–	338	0	230	566	–	–	–	–
B5	–	303	0	229	574	–	–	–	–
B6	966	482	0	0	–	–	–	–	–
B7	651	351	0	0	–	–	–	–	–
B8	–	271	123	487	138	–	–	–	–
B9	35	205	625	380	–	35	205	625	380
B10	392	295	38	281	–	–	–	–	–
B11	–	310	0	217	514	–	–	–	–
B12	462	305	0	385	–	–	–	–	–
B13	521	310	0	230	–	–	–	–	–
B14	492	330	0	324	–	–	–	–	–
B15	–	320	0	249	578	–	–	–	–
B16	–	328	0	245	575	–	–	–	–
B17	–	305	0	379	445	–	–	–	–
B18	–	330	0	259	559	–	–	–	–
